Results reported in a protein production outcome set (Wang et al. 2014).

Test: label from the status in PepcDB records

Sequence | protein production
MIPTSREERLKGRRHVRTSEDRSFLVLLAAISVAFGWLLWPFSGALLWATLLAIIFAPLYRLCLETFPEWRNLAALSTVLVVVVMVLIPVAVVIASLVEQGGELYQRVQTGEISFAHPLQQLKSALPDWAASVSDRLAGIDLSALKERLSSLVVPAGQQLAGHAINIGQLTVEFVASLLVMLYLLFFFLRDGDELNLRIRDALPLRRSHTAAILDAFTLSVRGTIKGIILVALIQGALGGLIFWLLGLTAPLLAGALMALLSLLPVLGSALVWVPVGLYLLVAGAVTKGMILLVFGTFVIGLADNFLRPVLVGQSIRMPSYVVLLATLGGLATFGANGFVIGPLVAAMFLTAWHIFVGSKEQQEVRN | failed
MIQAVFERAEDGELRSAEITGHAESGEYGLDVVCASVSTLAINFINSIEKFAGYEPILELNEDEGGYLMVEIPKDLPSHQREMTQLFFESFFLGMANLSENYSEFVQTRVITEN | not failed
MIRDYKSKLEFLAFYDELTGLPNKNSLIRWLNLKVSQMDCIDTYLIFLEVRDLEKLNVTYGYDLVDELIIHISKRIKDIAGEGNKAFKIGFDRFAIICKSENISDFIERMLSQLLLPYNVNGNLIRVNFNIGAAQIENSNEAAANLMRRCDLALIKAKEEGLNEYVIFKPSIELEHHHHHH | failed
MIREAQRSELPALLELWLESTIWGHPFIKSSYWRDCIPLVRDAYLANAQNWVWEEDGKLLGFVSIMEGRFLAAMFVAPKAVRRGIGKALMQYVQQRHPHLMLEVYQKNQPAIDFYHAQGFHIVDCAWQDETQLPTWIMSWPVVQTL | failed
MIRFEIHGDNLTITDAIRNYIEEKVGKLERYFNNVPNAVAHVRVKTYSNSTTKIEVTIPLKDVTLRAEERHDDLYAGIDLITNKLERQVRKYKTRVNRKHRDRGDQDIFVAEVQESTTNNHADDIESENDIEIIRSKQFSLKPMDSEEAVLQMNLLGHDFFIFTDRETDGTSIVYRRKDGKYGLIETTELEHHHHHH | not failed
MIRFEIHGENLTITDAIRNYIEEKIGKLERYFNDVPNATAHVKVKTYQNSATKIEVTIPLKKVTLRAEERNDDLYAGIDLINNKLERQVRKYKTRVNRRNRNRGEQEAFASLPEEKEAVEIQNDENEADNEIEIIRAKNFSLKPMDSEEAVLQMDLLGHDFFIFTDRETDGTSIVYKRKDGKYGLIETTELEHHHHHH | failed
MIRNPKIYIIILNYNAYEDTLECVKSIGNIDYDNYELVLVDNSSTDDSYVKLKESLPSYNIIKSKENLGYANGNNIGIKYALENGADYICILNNDVVVEKDFLNKLVDKIIEKEDVGIVGSCICDYYRREIIQGMGAHINLYFAAARRYFKGKNYNEIEKKDIFVDYLEGACFLVKSEVFEKIGLIPENYFLFFEETEFCTRAINAGYKIMCIYESKVYHKGSATINKFGSLSYAYLNRNRVIFVRRNSKWYQKIIFAIYIFIEAFGRIVIRKEPLTLFKYILGGFKSNKESIDVIDVKSYVKLEHHHHHH | failed
MIRQRSVIAKRAYIDEGVYIGNVVRIGEESMIHRRSRIGSGARIGGSVCIGVYCRIDGSVRIGQHADIGEWVNIDGHARIGNFARIGEWSRIGGRANIAAHVVLEKQSIIHSETCIQDASKLEHHHHHH | failed
MIRRALLIASLAALAGCAGLDAIQNAYQGIQDYFTGKDNAEPPAPLAEITPQVKADKLWMAEIGDGYDDQGINLGPAVDDSRVFAAERHGTVQAFNRLTGEKLWSVDHEMDLSAGPVFDDGELFLATAEGAVIVLNAADGALVWKSTLASEILSVPAVADDVVVVRGTNGHLTGLDRKSGATLWYFERHAPPLAIRSRGAPIIAGDLVIDGFGGGKVSAIQLKEGRLDWEANVSLPHGRSEIERLVDLSATPVVRNDVVFVSGYQGGTASLGLNTGEVQWKRESISSPAGMTADRRELYVTDANADLWQLAIRNGEDQWKQTELHQRRLTAPALVKDYLVVGDFEGYLHVLNKEDGRIVGRVQVTDAPIEYPPVVYGDIVYVYATDGTLAAITVD | failed
MIRTAKLALVAAALSTTALSPLALAAPAPAQPAATASIAVPPIVYQQRVLANGMKVFTSRDTSTPNVSVQVWYGVGSKDDPQGRSGFAHLFEHLMFKATRNMPNETVDRLTEDVGGFNNASTWDDFTNYYEVVPANHLERLIWAEADRLKSLVIDEAVFASERDVVKEELRQRVLADPYGRFFALSIPQQSFAVHPYQRPGIGSIEELDAATVDDVRAFHRTYYRPDNAALIIVGNFDQTKLDAMIDKYFGSLTTPAGAIPKVTAVEPARTGPKTVNTYGPNVPLPALAITWLAPAAADKDAPALAVLDAILTAGKSSRLYDSLVYDQKIAQSVFSSAPNNAQPGLFYVGAIMAGGKTVAQGEAALRAQVARVRDGLVTPAELAEAKAGLLADAVRRREEIDGRGFAIGYALQTEGDAAAANSSLAKLQAVTAADIQRVARQYLADDRRTVINYLPEKDRPAGEKDATPPIPKVASVKYDGPITTLAPEAEREKPPAVAAPVPAVMPTPAEKTLANGLRVIVAKSSELPLITSTLTVKGGASSDPAGLAGTSSLTSELLTEGTATRSATQVARETEALGANLAAGSGWEAASLTLSVTANNADPAMAIMADVAQNPAFKTEELDRVRAETLDGLSVAFQRPGSLASFATSPVLYAGSAYGHVAGGTPGSLPKIKREDLAKTHAAYWRPDNAVLVVTGNLSPEAGFALAEKAFGGWKKPATPPPAPPAAPTGYQPRNVVIDLPGTGQAAVVLAKPAITRADPSYYQGVVANTVLGVGFSSRLNQEIRIKRGLSYGAGSSLTPQGQFGGFSARVQTKNPSAGEVISLTRAELSRLANEPASVGELAARKSVLVGGFGRDLGTSEGLAGILGNLAVYGVPLTEIQSYAAKVEAVTPEQVQAFAKAKLDPTQMSVIVAGDAKAMGEALAKVAPNATVIPAAKLDLDAPGLTQ | failed
MIRTIQDLLNERVAIGKIVNTHGLKGEVKFFPYTNSEEIVKNLSSVVLYNSEKKAFYNLTVESVRRMNKLFLIRFKSIDTIEAAERIKGCEVFIKYEELPKLSEDEYYFYEILDCDVFYESGENVGKVVDIIETGSNDVLVVRKKKKETLIPMTKDCIVEIDKGAKKIIAKEMEWILEHHHHHH | failed
MISDNFFTEHMTIVIAVAIVLLLIIILLTCWKRVPADKALVITGLKKRVLTGKGGIQVPFLETSCIISLEAVSMTTDITEAPSKQGIFVDIAGTAVVKVDNNPEKVLIAVEQFCSGNADRTTQNIKTVVEQILEGKLRGIVSTLTVEQINEDRVAFENSIEDSITRELDNMGLRLLSYTVLKIATQGGYLENRAIPQIAQSKADADIASAERARDTEVKTAAAVREGQKAKLEAEAEIAQSDRDKTIRMEQYRAEQDKIKANADVSYKLQEIENNKIVADRNVELAKKEAQVVEEQLVASVKKPADAKKYETEVQAEANKIKSIKEAEARAQALKIEAQARADAKLLEAKAEAEAIRAQGEAEAEALKAKGIAEAEAKDRLAEAMEKYGEAAMMSMVVERLPEIMAQIAKPMEQIDKITVIDNGSGDGGSKVSKIVSDVAANGFEVLKDLTGADLGEVVRTIANKNSNNKPKTK | failed
MISIPVAQQQKLPRLVLPRVYGFPPNRETLGGTAYLIVENDGNTLIDSPPWTDGSQHWLREQGGVKRLILTHRGAIARVRAIQDTFDCEVMIHAQEAYLLPQVTVTPFNHHLAIGETLEILWTPGHSPGSACVYWSCQGGVLFTGRHLLPTPTGELAPIKTATTFHWPRQLRSVEALKAFCRQKSLSYLCPGANMGFLRGTLAIANAQAVLQGLSVDNLLCDKFLEHHHHHH | failed
MISNALKQGNLSPELEEKLVCMQKQQENANSTNEWETCSRGSVNEEALTPSRQTDDTEWKIRTSLRRPNAMTTSSQFNRILKKNRSKNDEVAELGEQKQSQLERHKELLKKNILRKRSLLERNLQSEIHEDVKTKVQRHVRPLSNASPDEQSENERSGEPNLDFKR | failed
MISPERLRVYRFFASLTDEQLKDIALISEEKSFPTGSVIFKENSKADNLMLLLEGGVELFYSNGGAGSAANSTVCSVVPGAIFGVSSLIKPYHYTSSARATKPVRVVDINGARLREMSENNQALGQVLMNNVAAAVLARLH | not failed
MISTFALFWALCIVCIINMARYYSSLRVLLMILRDCDPLLYQYVDGGGFFTSHGQPSKQIRLVGYIYAQRYLDHHDPEFIRRCERVRGQFLLTTALCGLIVISLIAMMMWY | failed
MISVAHSPDADDIFMYYAIKFGWIDCPIKNKAFHNIALDIETLNQEALKNTYDVSAISFGLYPKIANDYALLPTATSFGNGYGPKLVKKKGVKLKKDFRVALSGEHTTNALLFKIYYKHARITYMNFLDIEKAVLEEKVHAGVLIHESILDFHNELEVEKELWDVWKELIEVDLPLPLGGMAIRRSIPLYRAILIKKALIKAVEVALKHQNLLSGMLLERSLIRVNKERLRTYLSLYANETSTRLSEIQILAIDKLFELGYQHGFYASLLKTKDCLLTDEYLKYRFS | failed
MITFIGHVSKDVNVVDGKREIAYGGGVVMGAITSSLLGVKTKVITKCTREDVSKFSFLRDNGVEVVFLKSPRTTSIENRYGSDPDTRESFLISAADPFTESDLAFIEGEAVHINPLWYGEFPEDLIPVLRRKVMFLSADAQGFVRVPENEKLVYRDWEMKEKYLKYLDLFKVDSREAETLTGTNDLRESCRIIRSFGAKIILATHASGVIVFDGNFYEASFRSWSLEGRTGRGDTCTAAFLVGFVFKKMSIEKATKFAAAVTSVKMRHPGPLRREDLEAISGDQYF | not failed
MITGTLINALTVVFASLLGLAIGSRLSESIRGAIINVLGLAVLLIGISMALETKNVLIPTLSVVAGTAVGEVMGIEKALQSFGDRVERRLGKGRFSEGFVAATLLYCVGPMAILGPIQEGLTGDMSVLMAKSLLDGVASVALASALGIGVAFSSISILVYQGFFALLAAQLSSVVTERIIAEFTSTGGLLIMGIGINLLELRKLRVGNMLPALIFAPLIVAVLQLTGL | failed
MITILIFINIVKVVLFLFFLMTGTKIISGKMADEFKRFGLPSFFNFLTGAFEIVGAIGMLIGIWISTVALWAGLLLGGTMLAAALTLIVLARDPFKKAIPALVLFVLSLGISLYHIF | failed
MITLQKAEASDLEKIIAIQRASFKAVYEKYHDQYDPYVEEVEQIRWKLVERPDCFYHFVLVDETIVGFLRLVIKDEEKRAWLGTAAILPQYQGQGYGSAAMALLEKTYPKLTKWDLCTIAQEKLMVSFYEKCGYHSTHTEPEQEGMDMVYMTKKIE | failed
MITLTTDFGLKGPYVGEMKVAMLRINPNAKIVDVTHSVTRHSILEGSFVMEQVVKYSPKGTVHVGVIDPGVGTERRAIVIEGDQYLVVPDNGLATLPLKHIKVKSVYEIIPDKIRKFTGWEISSTFHGRDIFGPAGALIEKGIHPEEFGREIPVDSIVKLNVEPRKEGDVWILKVIYIDDFGNVILNLENYEKPRTVELLDFNLRLPYLETYGLVEKGEMLALPGSHDYLEIAVNMGSAAERLNVKVGDELRVRLL | not failed
MITRSEIFEYAEKTFGAKPDYPFKTYPHYAILRHLDDQKWFGLVMNVPKDKLGLEGEGDVDVIDIKCHPDKVHDLKIKAGFLPAYHMNKEHWLTAVLDGSVTKEEVFSLLAESYELTK | failed
MITYHSNALQSERQMYVWTPPGYTGMGEPLPVLYFYHGFGDTGRSAIDQGRIPQIMDNLLAEGKIKPMLVVIPDTETDAKGIIPEDFVPQERRKVFYPLNAKAADRELMNDIIPLISKRFSVRKDADGRALAGLSQGGYQALVSGMNHLESFGWLATFSGVTTTTVPDEGVAARLNDPAAINQQLRNFTVVVGDKDVVTGKDIAGLKTELEQKKIKFDYQEYPGLNHEMDVWRPAYAAFVQKFKIRHLEHHHHHH | failed
MIVAAPEQYSRDRDWQQAIAAGELTLALQPQMGLRNRQLRGFEVQLRWQHPQQGTLLASQLMEHLEQSQHRETVGRWFLDQAGQLLSQWRNSAQFSGLFALSLLPQQWKSPSFIHDLRSLLETYQIPPEQLELDLPAQSLAESAAESWDWVYAVRDLGIGIGLADFGSRSIGLYDLRNLPLTTLKLERRFVRGLPDDANDRAIVRGVVAMSQALKVRIVARGVDTVDQAKFLARAECDAMQGLAYSAPLEHHHHHH | failed
